Data published in patent publication US6043072A, “Nucleic acids encoding Taxus geranylgeranyl diphosphate synthase, and methods of use” (Washington State University Research Foundation, priority 1998, dated 2000).

Columns and labels:
[1] = system: ANY119, an S. cerevisiae mutant; test: Complementation assay in yeast bet2-1 mutant; format: cell-based; details: 37° C.; SGI (3 d) and N3 (5 d)
Method: The pYeDP60 constructs were transformed into the S. cerevisiae mutant ANY119 using the lithium acetate procedure (Treco, D. (1989) in Current Protocols in Molecular Biology (Ausubel, F. M., Brent, R., Kingston, R. E., Moore, D. D., Seidman, J. G., Smith, J. A. and White, T. J., Eds.), pp. 13.7.1-13.7.2, John Wiley and Sons, New York), and the transformed yeast were then plated on a synthetic medium containing glucose as the sole carbon source (but lacking uracil) and grown for 4 d at 25° C. Isolated colonies, corresponding to each construct, were then replica streaked onto SGI, N3 and SLI media and grown for 3, 5 or 7 d, respectively, at 25° C or 37° C.
SGI and SLI synthetic media contain, respectively, 20 g/liter glucose (G) or 20 g/liter galactose (L) in 1 g/liter bactocasamino acids (Difco), 6.7 g/liter yeast nitrogen base without amino acid (Difco), and 40 mg/liter DL-tryptophan.
The three pYeDP60/T. canadensis GGPP synthase constructs were introduced into and expressed in ANY119, an S. cerevisiae mutant that is defective for the β-subunit of type II geranylgeranyltransferase. […]

[2] = Prenyltransferase assay of extracts of yeast expressing the GGPP synthase constructs, with product analysis by radio-TLC; format: biochemical, Taxus canadensis
Method: The standard assay for prenyltransferase activities was performed with 21 mg protein in a total volume of 100 ml of the extraction/assay buffer disclosed in Example 3. […] The reaction was quenched by the addition of 300 mil of methanol:conc. HCl (4:1, v/v), and the allylic diphosphate products were solvolyzed (50, 51) upon further incubation at 42° C. for 20 min. The resulting solvolysis products were extracted twice with 1 ml pentane, and were either analyzed by liquid scintillation counting (in toluene:ethanol (7:3, v/v) containing 0.4% Omnifluor (DuPont NEN); ^14 C counting efficiency=96.0%) or concentrated on ice under a gentle stream of Ar to […] for further analysis.
For radio-TLC analysis, samples were mixed with 10 mg each of geranylgeraniol (all trans), geranyllinalool (mixed geometric isomers), farnesol and geraniol and spotted on Whatman MKC 18F reversed phase plates that were developed with acetonitrile:acetone:water (15:4:1, v/v/v) and visualized with I2 vapor. Bands corresponding to the standards were scraped into scintillation vials for counting. For radio-GC analysis, the above pentane extract was diluted with 200 ml of an 8% ethereal solution of the internal standards before concentration on ice. Product identity was confirmed by radio-GC (Satterwhite, D. M. and Croteau, R. (1988) J. Chromatogr., 452:61-73) coincidence with the authentic standard on a 12 ft x 0.125 in. polydimethylsiloxane column (15% SE-30 on 80/100-mesh Chromasorb WHP; (Alltech, Inc., Nicholasville, Ky.), with He as carrier and temperature programming from 150° C. (1 min hold) to 240° C. (20 min hold) at 8° C./min.

[3] = system: E. coli; test: Expression under a strong constitutive promoter in E. coli (vector pYPGE15); format: cell-based
Method: (§1) The toxicity of the constitutively expressed, recombinant GGPP synthase gene in yeast and in E. coli parallels the in vitro activity of the enzyme expressed in the truncation series. […] This toxicity is not observed when the corresponding transformed yeast are grown on glucose or glycerol (uninduced condition), but only when the gene is actively expressed by growth under inducing conditions with galactose as the carbon source. The overexpression of this gene to produce a functional GGPP synthase probably interferes with metabolism by depleting intracellular pools of FPP, via diversion to GGPP, and thus limiting sterol biosynthesis. […] The vector used in these E. coli transformation experiments was pYPGE15, the plasmid derived from λPG15.

[4] = system: yeast strain (INVSc1); test: Growth/toxicity of constructs in yeast under galactose induction; format: cell-based, S. cerevisiae; details: for growth of INVSc1 transformants on SLI medium: 30° C., 3 d, galactose (induced); for toxicity of the expressed recombinant GGPP synthase gene to host cells: inducing conditions, galactose as carbon source
Method: To test the expression of GGPP synthase on galactose as carbon source, each construct was transformed into a yeast strain (INVSc1) that metabolizes this sugar efficiently.
as §1

Molecule | growth at restrictive temperature (rescue of bet2-1 mutant) [1] | total radioactivity of solvolysis products coinciding with geranylgeraniol and geranyllinalool standards ([2]; reversed phase TLC, [4-^14 C]IPP plus FPP as substrates) [%] | prenyltransferase activity of enzyme preparation ([2]; yeast extracts, [4-^14 C]IPP and FPP) | growth of E. coli expressing the clone [3] | growth of INVSc1 transformants on SLI medium [4] | toxicity of the expressed recombinant GGPP synthase gene to host cells [4] | activity relative to the truncated form expressed from Tr^295 ([2]; compared on a protein basis, yeast extracts) [%]
Tr^295: 5'-truncated T. canadensis GGPP synthase of SEQ ID NO:2 beginning at nucleotide 295 (F^99), lacking the transit peptide (protein) FDFNEYMKSKAVAVDAALDKAIPLEYPEKIHESMRYSLLAGGKRVRPALCIAACELVGGSQDLAMPTACAMEMIHTMSLIHDDLPCMDNDDFRRGKPTNHKVFGEDTAVLAGDALLSFAFEHIAVATSKTVPSDRTLRVISELGKTIGSQGLVGGQVVDITSEGDANVDLKTLEWIHIHKTAVLLECSVVSGGILGGATEDEIARIRRYARCVGLLFQVVDDILDVTKSSEELGKTAGKDLLTDKATYPKLMGLEKAKEFAAELATRAKEELSSFDQIKAAPLLGLADYIAFRQN | showed growth | 97 | highly active | the cells will not grow | did not grow at all | extremely toxic | –
full-length: full-length T. canadensis GGPP synthase preprotein (SEQ ID NO:2) encoded by SEQ ID NO:1 (protein) MAYTAMAAGTQSLQLRTVASYQECNSMRSCFKLTPFKSFHGVNFNVPSLGAANCEIMGHLKLGSLPYKQCSVSSKSTKTMAQLVDLAETEKAEGKDIEFDFNEYMKSKAVAVDAALDKAIPLEYPEKIHESMRYSLLAGGKRVRPALCIAACELVGGSQDLAMPTACAMEMIHTMSLIHDDLPCMDNDDFRRGKPTNHKVFGEDTAVLAGDALLSFAFEHIAVATSKTVPSDRTLRVISELGKTIGSQGLVGGQVVDITSEGDANVDLKTLEWIHIHKTAVLLECSVVSGGILGGATEDEIARIRRYARCVGLLFQVVDDILDVTKSSEELGKTAGKDLLTDKATYPKLMGLEKAKEFAAELATRAKEELSSFDQIKAAPLLGLADYIAFRQN | showed growth | – | – | the cells will not grow | scanty growth | noticeable reduction in growth | 12
